Experimental data published in patent publication US20260176659A1, “IMPROVED METHOD FOR THE PRODUCTION OF NATURAL VANILLIN” (BASE SE, priority 2022, published 2026).

Assays:
Type in all cases: biochemical
[1] = Spectrophotometric enzymatic assay: cleaving activity, production of vanillin from coniferyl alcohol at 349 nm; conditions: freeze-dried cell free extract incl. buffer salts; vanillin from coniferyl alcohol
Procedure: Stock solution 200× of coniferyl alcohol (90 mg) was prepared in ethanol (5 mL) and stored at −20° C. From this, a new stock solution 20× of coniferyl alcohol (10 mM) was freshly prepared by 1:10 dilution in Glycine-NaOH (50 mM, pH 9.0). A cuvette containing 0.750 mL Glycine-NaOH (50 mM, pH 9.0) and 0.05 mL of the substrate 20× stock was pre-warmed at 25° C. for 1.5 mins. Then, the reaction was initiated by the addition of 0.2 mL of the enzyme sample. The cleaving […] activity was measured spectrophotometrically following the production of vanillin at 349 nm (ε349=26.7 mM^−1cm^−1 experimentally determined). One unit of activity (U) is defined as the amount of enzyme required to produce 1 μmol of vanillin per min. Agilent Cary 60 UV-Vis Spectrophotometer was used for all the measurements.
Searching for alternative novel alkene cleavage oxygenases (COs) catalysing the formation of vanillin from coniferyl alcohol was performed. A set of 27 sequences and 10 COs from different branches of the phylogenetic tree were selected, named CO-02-11. Two additional enzymes were included, which are located in different clusters of the phylogenetic tree: Lignostillbene dioxygenase from Pseudomonas brassicaceraum (PbLSD, PDB: 5V2D) and aromatic dioxygenase (Ado, CO-01) from Thermothelomyces thermophilus (GenBank ID: XP_003665585). The proteins were recombinantly expressed in E. coli BL21(DE3), following the same protocol developed for IECO. […] Putative COs were screened by spectrophotometric assay, monitoring the formation of 3a upon 2a cleavage. From a set of twelve COs, four positive hits, namely CO-01, CO-03, CO-06 and CO-07 were found. Positive variants were tested in the one pot cascade and compared them with IECO In agreement with the spectrophotometric screening, all four COs converted eugenol 1a to vanillin 3a (Table 8). The first step of the cascade is efficiently performed by EUGO, and the substrate is completely consumed. […] Overall, 70±3% conversion of 1a to vanillin 3a was achieved.

[2] = Biotransformation of coniferyl alcohol to vanillin catalysed by IECO (5 mM); conditions: 5 mM 2a; for Consumption of 2a / Conversion of 2a to 3a (%) / Conversion of 2a to 5a (%) / Reaction composition at 24 hours (%) 2a / Reaction composition at 24 hours (%) 3a / Reaction composition at 24 hours (%) 5a: pH 9.0
Procedure: 180 mg of coniferyl alcohol were weighted and dissolved in 10 mL ethanol and stored at −20° C. (stock 100 mM). The reaction mixtures (0.5 mL) were set up in 1.5 mL glass vials as follows: […] (50 mM, pH 9.0) together with sodium ascorbate (1 mM), FeSO4 (1 mM) and bovine liver catalase (Sigma C40, 0-10 mg/mL). The reaction was initiated by the addition of coniferyl alcohol stock (0.025 mL, final concentration 5 mM), then it was incubated for 24 hours at 30° C. and 120 rpm (rotary shaker). Note that the reaction contained 5% v/v ethanol deriving from the substrate stock. To improve the oxygenation, the vials were placed horizontally. At certain time points, reaction samples were taken and quenched with methanol (2 vol. equivalents). The mixture was centrifuged for 5-10 mins at 20238 g. Then supernatant was finally transferred in a HPLC vial for analysis.

[3] = Biotransformation of isoeugenol to vanillin: pH and solvent screening
Procedure: Stock solution of rac-isoeugenol (100 mM) was prepared in DMSO and stored at 4° C. Each reaction mixtures (1 mL) were set up as follows: rac-isoeugenol (50 μL, final concentration 5 mM) was diluted in various buffers (100 mM, pH 7.0-10.5) in 4 mL glass vials, together with FeSO4 (0.5 mM) and DMSO (150 μL; final concentration including the part from substrate stock: 20% v/v). The reaction was initiated by the addition of IECO (cell free extract 1 mg/mL). Wild type E. coli BL21 (DE3) was used as negative control. The reaction was incubated for 24 hours at 30° C. and 120 rpm (rotary shaker). To improve the oxygenation, the vials were placed horizontally. The reaction was quenched with methanol (2 vol. equiv.), centrifuged at 20238 g for 5-10 mins and analysed by HPLC.
Stock solutions of rac-isoeugenol (100 mM) were prepared in different solvents and stored in the dark at 4° C. Each reaction mixtures (1 mL) were set up as follows: ra-isoeugenol (50 μL, final concentration 5 mM) was diluted in Glycine-NaOH (100 mM, pH 9.5) in 4 mL glass vials, together with FeSO4 (0.5 mM) and the respective cosolvent (0, 50 or 150 μL; final content of cosolvent including the part from the substrate stock: 5, 10 and 20% v/v). The reaction was initiated by the addition of IECO (cell free extract 1 mg/mL). […] The reaction was quenched with methanol (2 vol. equiv.), centrifuged at 20238 g and analysed by HPLC.

[4] = IECO CFE Fresh 1 mg/mL, 24 h, non-optimised
[5] = IECO CFE Fresh 2 mg/mL, 24 h, non-optimised
[6] = IECO CFE Stored at −20° 2 mg/mL, 24 h, non-optimised
[7] = IECO CFE Stored at −20° C. 3 mg/mL, 24 h, non-optimised
[8] = IECO fresh CFE 1 mg/mL, catalase 0 mg/mL
[9] = IECO fresh CFE 1 mg/mL, catalase 2 mg/mL
[10] = IECO fresh CFE 1 mg/mL, catalase 10 mg/mL
[11] = IECO fresh CFE 2 mg/mL, catalase 0 mg/mL
[12] = IECO fresh CFE 2 mg/mL, catalase 2 mg/mL
[13] = IECO fresh CFE 2 mg/mL, catalase 10 mg/mL
[14] = IECO fresh CFE 4 mg/mL, catalase 0 mg/mL
[15] = IECO fresh CFE 4 mg/mL, catalase 2 mg/mL
[16] = IECO fresh CFE 4 mg/mL, catalase 10 mg/mL

B1: IECO: isoeugenol cleavage oxygenase from Pseudomonas nitroreducens (GenBank: ACP17973), SEQ ID NO: 24 (protein, listed as Pseudomonas nitroreducens)
chain: MARLNRNDPQLVGTLLPTRIEADLFDLEVDGEIPKSINGTFYRNTPEPQVTPQKFHTFIDGDGMASAFHFEDGHVDFISRWVKTARFTAERLARKSLFGMYRNPYTDDTSVKGLDRTVANTSIISHHGKVLAVKEDGLPYELDPRTLETRGRFDYDGQVTSQTHTAHPKYDPETGDLLFFGSAAKGEATPDMAYYIVDKHGKVTHETWFEQPYGAFMHDFAITRNWSIFPIMPATNSLSRLKAKQPIYMWEPELGSYIGVLPRRGQGSQIRWLKAPALWVFHVVNAWEVGTKIYIDLMESEILPFPFPNSQNQPFAPEKAVPRLTRWEIDLDSSSDEIKRTRLHDFFAEMPIMDFRFALQCNRYGFMGVDDPRKPLAHQQAEKIFAYNSLGIWDNHRGDYDLWYSGEASAAQEPAFVPRSPTAAEGDGYLLTVVGRLDENRSDLVILDTQDIQSGPVATIKLPFRLRAALHGCWVPRP
- Specific Activity (mU/mg of FD-CFE) [1]: 2.8 mU/mg
- vanillin afforded ([2]; IECO 4 mg CFE/mL in the presence of catalase, 24 h): 3.6 ± 0.6 mM
- Consumption of 2a [2, 4]: 24%
- Conversion of 2a to 3a (%) [2, 4]: 9%
- Consumption of 2a [2, 5]: 45%
- Conversion of 2a to 3a (%) [2, 5]: 17%
- Consumption of 2a [2, 6]: 12%
- Conversion of 2a to 3a (%) [2, 6]: 4%
- Conversion of 2a to 5a (%) [2, 6]: 1%
- Consumption of 2a [2, 7]: 18%
- Conversion of 2a to 3a (%) [2, 7]: 5%
- Conversion of 2a to 5a (%) [2, 7]: 13%
- Reaction composition at 24 hours (%) 2a [2, 8]: 46 ± 3%
- Reaction composition at 24 hours (%) 3a [2, 8]: 51 ± 3%
- Reaction composition at 24 hours (%) 5a [2, 8]: 3 ± 1%
- Conversion of 2a to 3a (%) ([2]; IECO fresh CFE 1 mg/mL, catalase 0 mg/mL, 24 h): 38 ± 4%
- Reaction composition at 24 hours (%) 2a [2, 9]: 41 ± 6%
- Reaction composition at 24 hours (%) 3a [2, 9]: 58 ± 6%
- Reaction composition at 24 hours (%) 5a [2, 9]: 1 ± 0.1%
- Conversion of 2a to 3a (%) ([2]; IECO fresh CFE 1 mg/mL, catalase 2 mg/mL, 24 h): 44 ± 5%
- Reaction composition at 24 hours (%) 2a [2, 10]: 41 ± 3%
- Reaction composition at 24 hours (%) 3a [2, 10]: 58 ± 1%
- Reaction composition at 24 hours (%) 5a [2, 10]: 1 ± 0.1%
- Conversion of 2a to 3a (%) ([2]; IECO fresh CFE 1 mg/mL, catalase 10 mg/mL, 24 h): 45 ± 3%
- Reaction composition at 24 hours (%) 2a [2, 11]: 25 ± 4%
- Reaction composition at 24 hours (%) 3a [2, 11]: 71 ± 4%
- Reaction composition at 24 hours (%) 5a [2, 11]: 5 ± 1%
- Conversion of 2a to 3a (%) ([2]; IECO fresh CFE 2 mg/mL, catalase 0 mg/mL, 24 h): 53 ± 3%
- Reaction composition at 24 hours (%) 2a [2, 12]: 27 ± 3%
- Reaction composition at 24 hours (%) 3a [2, 12]: 72 ± 3%
- Reaction composition at 24 hours (%) 5a [2, 12]: 1 ± 0.3%
- Conversion of 2a to 3a (%) ([2]; IECO fresh CFE 2 mg/mL, catalase 2 mg/mL, 24 h): 58 ± 3%
- Reaction composition at 24 hours (%) 2a [2, 13]: 22 ± 4%
- Reaction composition at 24 hours (%) 3a [2, 13]: 77 ± 4%
- Reaction composition at 24 hours (%) 5a [2, 13]: 1 ± 0.1%
- Conversion of 2a to 3a (%) ([2]; IECO fresh CFE 2 mg/mL, catalase 10 mg/mL, 24 h): 59±3%
- Reaction composition at 24 hours (%) 2a [2, 14]: 9.1 ± 3%
- Reaction composition at 24 hours (%) 3a [2, 14]: 82 ± 5%
- Reaction composition at 24 hours (%) 5a [2, 14]: 9 ± 4%
- Conversion of 2a to 3a (%) ([2]; IECO fresh CFE 4 mg/mL, catalase 0 mg/mL, 24 h): 56 ± 10%
- Reaction composition at 24 hours (%) 2a [2, 15]: 11 ± 3%
- Reaction composition at 24 hours (%) 3a [2, 15]: 84 ± 5%
- Reaction composition at 24 hours (%) 5a [2, 15]: 5 ± 4%
- Conversion of 2a to 3a (%) ([2]; IECO fresh CFE 4 mg/mL, catalase 2 mg/mL, 24 h): 62 ± 10%
- Reaction composition at 24 hours (%) 2a [2, 16]: 13 ± 1%
- Reaction composition at 24 hours (%) 3a [2, 16]: 86 ± 13%
- Reaction composition at 24 hours (%) 5a [2, 16]: 1 ± 0.1%
- pH optimum of activity toward isoeugenol ([3]; rac-isoeugenol 5 mM, buffers pH 7.0-10.5): 9.0
- cosolvent tolerance, activity toward isoeugenol ([3]; solvent screening 5, 10 and 20% v/v): tolerates a panel of cosolvents, with a preference for ethanol and DMSO
